According to patent US9200252B2, “Compositions for inducing differentiation into retinal cells from retinal progenitor cells or inducing proliferation of retinal cells comprising Wnt signaling pathway activators” (SNU R&DB Foundation, priority 2009, dated 2015):
Where “and” joins values, the source holds several entries; their conditions need not be identical. Equal values may be shown once.

Tests used:
[1] = tested on: hESC-derived retinal progenitor cells; test: Differentiation into photoreceptor cells with Wnt3a or its inhibitor Dkk-1, without Shh and retinoic acid; immunofluorescent staining on Day 29; format: cell-based, human; details: for Positive rate of Crx / Positive rate of Pax6 / Positive rate of peripherin2 / Positive rate of recoverin / Positive rate of rhodopsin: from Day 13 to Day 29, no Wnt3a, Shh, RA
Description: In order to examine the function of the Wnt signaling pathway activator on differentiation from hESCs into retinal cells, particularly photoreceptor cells, cells were cultured in the presence of a Wnt signaling pathway antagonist. The Wnt/Frizzled signaling pathway inhibitor Dkk-1 (R&D Systems, Minneapolis, Minn., USA) was added at a concentration of 10 ng/ml, 100 ng/ml or 1 μg/ml on day 13, followed by culturing the cells for an additional 16 days. While the antagonist concentrations were maintained uniformly over the culture time period, the Wnt signaling pathway activator was assayed for activity. Dkk-1 was dissolved in 0.1% bovine serum albumin (BSA, Sigma-Aldrich) in PBS before use.
According to a protocol for differentiation into retinal cells, Wnt3a and Dkk-1 were added on Day 13 at the following concentrations: 50 ng/ml Wnt3a (group I), free of both Wnt3a and Dkk-1 (group II), 10 ng/ml Dkk-1 (group III), 100 ng/ml Dkk-1 (group IV), and […] Dkk-1 (group V). In each medium, the cells were cultured to Day 29. In this experiment, none of the other major differentiation factors Shh and RA were used.
On Day 29, the cells which had been cultured on poly-D-lysine/laminin-coated, 8-well slides (BD Biosciences) under the conditions of Wnt3a and Dkk-1 (groups I-V) were fixed with 4% paraformaldehyde (Sigma-Aldrich), after which non-specific reactions were blocked with PBS containing 3% BSA (Jackson Immunoresearch Laboratory, Bar Harbor, Me., USA) and 0.25% Triton X-100 (Sigma-Aldrich).
(§1) After being blocked for 90 min, the slides in each differentiation step were incubated overnight at 4° C. with the following antibodies specific for cells of each differentiation step: rabbit-Blue-opsin (1:500, Chemicon), sheep-Chx10 (1:100, Chemicon), rabbit-Crx (1:200, Santa Cruz Biotechnology, Santa Cruz, Calif., USA), rabbit-GFAP (1:200, Invitrogen), mouse-human specific mitochondria (1:50, Chemicon), rabbit-human specific mitochondria (1:200, Chemicon), mouse-Islet1 (1:10, Developmental Studies Hydroma Bank, DSHB; Iowa City, Iowa, USA), mouse-Ki67 (1:100, Vector Laboratories, Peterborough, England), mouse-Mitf (1:1,000, abcam, Cambridge, Mass., USA), mouse-nestin (1:250, BD Sciences), rabbit-neurofilament-200 (1:1,000, Sigma-Aldrich), rabbit-Otx2 (1:100, abcam), rabbit-Pax2 (1:250, abcam), mouse-Pax6 (1:2, DSHB), mouse-peripherin2 (1:500, GenScript, Piscataway, N.J., USA), rabbit-Rax (1:250, abcam), rabbit-recoverin (1:1,000, Chemicon), retinal pigment epithelium 65 (RPE65, 1:100, Chemicon), rabbit-rhodopsin (1:500, Sigma-Aldrich), mouse-rhodopsin (1:500, Ret-P1, Lab Vision, Fremont, Calif., USA), mouse-rhodopsin (1:2,000, Ret-P1, Sigma-Aldrich), mouse-rom1 (1:50, ABR-Affinity Bioreagents, Golden, Colo., USA), rabbit-PDE6 beta (1:100, abcam), rabbit-phosducin (1:500, Santa Cruz Biotechnology), mouse-PKC-alpha (1:500, Sigma-Aldrich), mouse-Prox1 (1:2,000, Chemicon), mouse-Sox2 (1:250, R&D Systems), rabbit-synaptophysin (1:2,000, Santa Cruz Biotechnology), and rabbit-ZO-1 (1:100, Zymed-Invitrogen).
Before use, these antibodies were diluted in a PBS solution containing 1% BSA and 0.25% Triton X-100. The cells were washed three times for 5 min with PBS and incubated at room temperature for 2 hrs with species-specific secondary antibody conjugated with Cy3 (1:800, Jackson Immunoresearch Laboratory) or Alexa488 (1:500, Invitrogen). A standard material suitable for the primary and the secondary antibody was used to examine non-specific staining or interaction between the antibodies. Afterwards, the cells were washed three times for 5 min with PBS, counterstained with DAPI (4,6-diamidino-2 phenylindole) and mounted in Vectashield (Vector Laboratories), followed by visualization under an epifluorescence microscope (Nikon Eclipse, E800, Tokyo, Japan) and a confocal microscope (Leica, Leica Microsystems Inc, Bannockburn, Ill., USA or Zeiss LSM510, Carl Zeiss, Inc, Thornwood, N.Y., USA). […]

[2] = tested on: hESC-derived retinal progenitor cells; test: Differentiation of hESC-derived retinal progenitor cells into photoreceptor cells with substitutes for Wnt3a or Shh; positive rates of retinal cell markers by immunochemical staining; format: cell-based, human; details: Mean ± S.E.M., sample size 3
Description: The eye field precursors (floating aggregates) were cultured in 8-well poly-D-lysine/laminin-coated slides (BD Biosciences, Bedford, Mass.) under the same conditions that were used for differentiation into the retinal progenitor cells, the neural retinal progenitor cells, the photoreceptor cell precursors and the photoreceptor cells.
as §1
The cells cultured on the slides in each step were washed three times for 5 min with PBS and incubated at room temperature for 2 hrs with species-specific secondary antibody conjugated with Cy3 (1:800, Jackson Immunoresearch Laboratory) or Alexa488 (1:500, Invitrogen). A standard material suitable for the primary and the secondary antibody was used to examine non-specific staining or interaction between the antibodies. Afterwards, the cells were washed three times for 5 min with PBS, counterstained with DAPI (4,6-diamidino-2 phenylindole) and mounted in Vectashield (Vector Laboratories), followed by visualization under an epifluorescence microscope (Nikon Eclipse, E800, Tokyo, Japan) and a confocal microscope (Leica, Leica Microsystems Inc, Bannockburn, Ill., USA or Zeiss LSM510, Carl Zeiss, Inc, Thornwood, N.Y., USA).
500 cells were counted from 20 microscopic fields randomly selected at 200 magnification and evaluated for positive responses to each antibody. Positive responses to antibodies were determined after at least three evaluations. […] All data were represented as mean±standard error of the mean (S.E.M) with a statistical significance of p<0.05.

[3] = Dkk-1 10 ng/ml, 100 ng/ml, 1 μg/ml

B1: Dkk-1: recombinant Dkk-1 (R&D Systems), Wnt/Frizzled signaling pathway inhibitor (protein, UniProt O94907 32-266, looked up)
Dickkopf-related protein 1: TLNSVLNSNAIKNLPPPLGGAAGHPGSAVSAAPGILYPGGNKYQTIDNYQPYPCAEDEECGTDEYCASPTRGGDAGVQICLACRKRRKRCMRHAMCCPGNYCKNGICVSSDQNHFRGEIEETITESFGNDHSTLDGYSRRTTLSSKMYHTKGQEGSVCLRSSDCASGLCCARHFWSKICKPVLKEGQVCTKHRRKGSHGLEIFQRCYCGEGLSCRIQKDHHQASNSSRLHTCQRH
Positive rate of Crx ([1]; Dkk-1 10 ng/ml (Group III)): 54.3 (±3.1) %
Positive rate of Pax6 ([1]; Dkk-1 10 ng/ml (Group III)): 63.9 (±0.9) %
Positive rate of peripherin2 ([1]; Dkk-1 10 ng/ml (Group III)): 27.0 (±1.0) %
Positive rate of recoverin ([1]; Dkk-1 10 ng/ml (Group III)): 55.1 (±0.6) %
Positive rate of rhodopsin ([1]; Dkk-1 10 ng/ml (Group III)): 49.1 (±2.0) %
Expression level of photoreceptor cell markers Crx, recoverin, rhodopsin and peripherin2 with increasing Dkk-1 concentration [1, 3]: remarkably decreased
Expression level of retinal progenitor cell marker Pax6 with increase in Dkk-1 concentration [1, 3]: decreased
Positive rate of Crx ([1]; Dkk-1 100 ng/ml (Group IV)): 7.4 (±1.1) %
Positive rate of Pax6 ([1]; Dkk-1 100 ng/ml (Group IV)): 51.8 (±1.0) %
Positive rate of peripherin2 ([1]; Dkk-1 100 ng/ml (Group IV)): 2.1 (±1.0) %
Positive rate of recoverin ([1]; Dkk-1 100 ng/ml (Group IV)): 41.5 (±1.3) %
Positive rate of rhodopsin ([1]; Dkk-1 100 ng/ml (Group IV)): 28.9 (±0.5) %
Positive rate of Crx ([1]; Dkk-1 1 μg/ml (Group V)): 7.5 (±0.9) %
Positive rate of Pax6 ([1]; Dkk-1 1 μg/ml (Group V)): 42.1 (±2.1) %
Positive rate of peripherin2 ([1]; Dkk-1 1 μg/ml (Group V)): 0.1 (±0.1) %
Positive rate of recoverin ([1]; Dkk-1 1 μg/ml (Group V)): 15.2 (±4.0) %
Positive rate of rhodopsin ([1]; Dkk-1 1 μg/ml (Group V)): 11.9% and 11.9 (±3.0) %

B2: Wnt1: recombinant Wnt1 (PeproTech), Wnt signaling pathway activator used instead of Wnt3a (protein, UniProt P04628 28-370, looked up)
Proto-oncogene Wnt-1: ANSSGRWWGIVNVASSTNLLTDSKSLQLVLEPSLQLLSRKQRRLIRQNPGILHSVSGGLQSAVRECKWQFRNRRWNCPTAPGPHLFGKIVNRGCRETAFIFAITSAGVTHSVARSCSEGSIESCTCDYRRRGPGGPDWHWGGCSDNIDFGRLFGREFVDSGEKGRDLRFLMNLHNNEAGRTTVFSEMRQECKCHGMSGSCTVRTCWMRLPTLRAVGDVLRDRFDGASRVLYGNRGSNRASRAELLRLEPEDPAHKPPSPHDLVYFEKSPNFCTYSGRLGTAGTAGRACNSSSPALDGCELLCCGRGHRTRTQRVTERCNCTFHWCCHVSCRNCTHTRVLHECL
Positive rate of Crx ([2]; 50 ng/ml instead of Wnt3a): 60.3(±1.3) %
Positive rate of Ki67 ([2]; 50 ng/ml instead of Wnt3a): 23.8(±1.2) %
Positive rate of Rom ([2]; 50 ng/ml instead of Wnt3a): 55.9(±2.9) %
Positive rate of b-opsin ([2]; 50 ng/ml instead of Wnt3a): 61.6(±6.8) %
Positive rate of peripherin2 ([2]; 50 ng/ml instead of Wnt3a): 3.8(±2.0) %
Positive rate of recoverin ([2]; 50 ng/ml instead of Wnt3a): 70.9(±1.8) %
Positive rate of rhodopsin ([2]; 50 ng/ml instead of Wnt3a): 66.2(±5.4) %

B3: Wnt11: recombinant Wnt11 (R&D Systems), Wnt signaling pathway activator used instead of Wnt3a (protein, UniProt O96014 25-354, looked up)
Protein Wnt-11: IKWLALSKTPSALALNQTQHCKQLEGLVSAQVQLCRSNLELMHTVVHAAREVMKACRRAFADMRWNCSSIELAPNYLLDLERGTRESAFVYALSAAAISHAIARACTSGDLPGCSCGPVPGEPPGPGNRWGGCADNLSYGLLMGAKFSDAPMKVKKTGSQANKLMRLHNSEVGRQALRASLEMKCKCHGVSGSCSIRTCWKGLQELQDVAADLKTRYLSATKVVHRPMGTRKHLVPKDLDIRPVKDSELVYLQSSPDFCMKNEKVGSHGTQDRQCNKTSNGSDSCDLMCCGRGYNPYTDRVVERCHCKYHWCCYVTCRRCERTVERYVCK
Positive rate of Crx ([2]; 50 ng/ml instead of Wnt3a): 65.9(±5.8) %
Positive rate of Ki67 ([2]; 50 ng/ml instead of Wnt3a): 40.1(±5.2) %
Positive rate of Rom ([2]; 50 ng/ml instead of Wnt3a): 50.2(±7.4) %
Positive rate of b-opsin ([2]; 50 ng/ml instead of Wnt3a): 30.6(±6.2) %
Positive rate of peripherin2 ([2]; 50 ng/ml instead of Wnt3a): 0.5(±0.3) %
Positive rate of recoverin ([2]; 50 ng/ml instead of Wnt3a): 65.3(±2.7) %
Positive rate of rhodopsin ([2]; 50 ng/ml instead of Wnt3a): 51.8(±7.7) %
Positive rate of peripherin2 ([2]; 100 ng/ml instead of Wnt3a): 10.7(±2.9) %
Positive rate of recoverin ([2]; 100 ng/ml instead of Wnt3a): 61.8(±4.1) %
Positive rate of rhodopsin ([2]; 100 ng/ml instead of Wnt3a): 59.1(±5.4) %
